Data on two molecules can be found in patent US20220332804A1 (CSL INNOVATION, published 2022).

One test addresses T1, human C2 G677A (human, UniProt P06681 21-752).
T1 sequence: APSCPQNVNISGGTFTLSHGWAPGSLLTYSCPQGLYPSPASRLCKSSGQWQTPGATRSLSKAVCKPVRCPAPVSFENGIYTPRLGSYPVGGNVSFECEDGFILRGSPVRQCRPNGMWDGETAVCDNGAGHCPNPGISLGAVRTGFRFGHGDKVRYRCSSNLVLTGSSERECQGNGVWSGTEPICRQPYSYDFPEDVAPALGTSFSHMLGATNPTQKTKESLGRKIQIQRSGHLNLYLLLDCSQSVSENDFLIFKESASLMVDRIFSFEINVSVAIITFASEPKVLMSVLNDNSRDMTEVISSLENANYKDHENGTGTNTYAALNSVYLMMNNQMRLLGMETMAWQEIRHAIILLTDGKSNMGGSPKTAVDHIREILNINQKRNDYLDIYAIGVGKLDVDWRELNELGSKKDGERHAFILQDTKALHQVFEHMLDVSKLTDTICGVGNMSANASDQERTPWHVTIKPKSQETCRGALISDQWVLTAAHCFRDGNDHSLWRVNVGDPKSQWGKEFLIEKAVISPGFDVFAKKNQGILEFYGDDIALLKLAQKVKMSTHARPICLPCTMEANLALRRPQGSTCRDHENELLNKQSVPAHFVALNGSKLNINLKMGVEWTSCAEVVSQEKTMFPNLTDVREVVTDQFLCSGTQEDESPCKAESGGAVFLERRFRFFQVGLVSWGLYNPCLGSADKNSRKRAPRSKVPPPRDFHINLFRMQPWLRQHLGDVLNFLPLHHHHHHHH
In words: SPR; KD relative to WT C2.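 Also: biacore SPR at 37 °C, anti-C2 mAbs captured on an anti-human IgG chip, alanine or serine C2 surface mutants tested, KD from 1:1 fit compared with wild-type C2.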 For orientation: Surface plasmon resonance follows binding to a sensor surface in real time, without labels.

In the next test the target is T2, human C2 M452A (human, UniProt P06681 21-752).
T2 sequence: T1 sequence with M432A, A657G
Briefly: SPR; KD relative to WT C2.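 Also: biacore SPR at 37 °C, anti-C2 mAbs captured on an anti-human IgG chip, alanine or serine C2 surface mutants tested, KD from 1:1 fit compared with wild-type C2.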

The target in test [1] is T3, human complement C2 (human, UniProt P06681 21-752).
T3 construct: Recombinant full-length human C2 with C-terminal 8x His tag, purified from Expi293F supernatant; also called human C2; huC2
T3 sequence: T1 sequence with A657G
In words: SPR, mAb captured, huC2 analyte, pH 6, steady state.

Test [2] deals with T3, human complement C2. In words: SPR, mAb captured, huC2 analyte, pH 6.

Substitutions are numbered along the chain they refer to.

B1: RF16-214 (antibody, V domains shown)
VH: EVQLLESGGGLVQPGGSLRLSCAASGFTFSWYQMMWVRQAPGKGLEWVSRIYPSGGGTAYADSVKGRFTISRDNSKNTLYLQMNSLRAEDTAVYYCARDAGYGDNWGQGTLVTVSS
VL: QSALTQPPSVSVSPGQTASITCSGDKLGEKYASWYQQKAGQSPVMVIYQDRKRPSGIPERFSGSNSGNTATLTISGTQAMDEADYYCQAWDTRAVVFGGGTKLTVLG
Regarding B1, the Fold diff in the test with human C2 G677A and in the test with human C2 M452A was 1 fold each time.

B2: RF16-226 (antibody)
heavy: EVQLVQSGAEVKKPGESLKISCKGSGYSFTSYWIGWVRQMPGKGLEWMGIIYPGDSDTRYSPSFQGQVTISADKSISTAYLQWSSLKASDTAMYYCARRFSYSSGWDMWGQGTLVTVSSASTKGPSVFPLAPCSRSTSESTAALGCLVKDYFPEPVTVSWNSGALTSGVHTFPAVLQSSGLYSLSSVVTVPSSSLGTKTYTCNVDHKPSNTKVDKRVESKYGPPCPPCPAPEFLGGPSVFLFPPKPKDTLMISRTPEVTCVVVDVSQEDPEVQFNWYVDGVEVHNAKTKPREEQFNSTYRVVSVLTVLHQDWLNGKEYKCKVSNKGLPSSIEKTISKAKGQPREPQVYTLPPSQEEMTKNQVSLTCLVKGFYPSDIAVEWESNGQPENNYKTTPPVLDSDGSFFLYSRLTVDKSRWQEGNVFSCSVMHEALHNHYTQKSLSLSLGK
light: SYELTQPPSVSVSPGQTARITCSGDALTSKYVAWYQQKSGLAPLLVIYEDTRRPSGIPAKFSGSSSGSVATLTISGAHGDDEADYYCYSTDASGHQRVFGGGTKLTVLSQPKAAPSVTLFPPSSEELQANKATLVCLISDFYPGAVTVAWKADGSPVKAGVETTKPSKQSNNKYAASSYLSLTPEQWKSHRSYSCQVTHEGSTVEKTVAPTECS
Turning to B2, the Kd was around 95 nM with human complement C2 [1] and around 80 nM with human complement C2 [2].

Usually Kd stands for the constant that tells how readily two partners part at equilibrium. Read a high Kd as lower affinity.
